Measurements taken from article PMC4361775.
pKd: −log10 of the molar value.

What was measured:
[1] = target: type II human collagen (human); assay: SPR
[2] = target: coch_vWFA2_F527C protein, monomeric form (recombinant vWFA2 domain of human cochlin carrying the p.F527C mutation) (human); assay: non-reducing SDS-PAGE
[3] = target: type II collagen (UniProt P02458); assay: SPR; conditions: cited from earlier work
type II collagen, sequence (P02458 182-1241): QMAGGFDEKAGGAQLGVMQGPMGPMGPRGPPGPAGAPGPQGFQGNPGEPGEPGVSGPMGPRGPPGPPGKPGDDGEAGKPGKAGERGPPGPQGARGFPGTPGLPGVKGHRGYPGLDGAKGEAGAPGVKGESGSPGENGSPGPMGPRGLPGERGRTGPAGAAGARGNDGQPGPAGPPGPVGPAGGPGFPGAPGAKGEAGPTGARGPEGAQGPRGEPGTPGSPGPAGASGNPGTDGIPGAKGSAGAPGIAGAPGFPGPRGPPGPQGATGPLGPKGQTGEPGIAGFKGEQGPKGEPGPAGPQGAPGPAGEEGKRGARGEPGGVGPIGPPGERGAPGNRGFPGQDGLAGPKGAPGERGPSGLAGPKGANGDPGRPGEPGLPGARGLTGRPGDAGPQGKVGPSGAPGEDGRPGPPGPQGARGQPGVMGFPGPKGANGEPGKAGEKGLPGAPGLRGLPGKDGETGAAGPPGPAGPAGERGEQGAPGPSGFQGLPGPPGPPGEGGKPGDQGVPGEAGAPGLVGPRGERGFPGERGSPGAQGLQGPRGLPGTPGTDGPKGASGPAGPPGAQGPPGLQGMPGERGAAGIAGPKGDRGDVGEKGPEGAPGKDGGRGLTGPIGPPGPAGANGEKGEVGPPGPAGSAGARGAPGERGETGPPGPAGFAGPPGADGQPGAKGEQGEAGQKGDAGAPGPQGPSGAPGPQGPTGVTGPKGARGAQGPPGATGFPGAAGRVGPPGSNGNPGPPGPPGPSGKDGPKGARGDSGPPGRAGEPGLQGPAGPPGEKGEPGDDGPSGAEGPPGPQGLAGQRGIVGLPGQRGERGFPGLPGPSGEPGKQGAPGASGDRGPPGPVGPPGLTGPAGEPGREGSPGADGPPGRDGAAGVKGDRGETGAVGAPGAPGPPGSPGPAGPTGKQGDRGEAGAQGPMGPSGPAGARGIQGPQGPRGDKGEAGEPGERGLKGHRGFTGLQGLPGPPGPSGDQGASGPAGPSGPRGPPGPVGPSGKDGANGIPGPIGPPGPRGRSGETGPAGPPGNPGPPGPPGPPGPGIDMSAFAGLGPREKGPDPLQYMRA

**Q.** With “coch_vWFA2_F527C protein, dimeric form (covalent disulfide-bonded dimer) (domain or fragment)” as the substance, how does the Kd of the higher-affinity species (heterogeneous analyte, two species 1:1) [1] read?
**A.** The Kd of the higher-affinity species (heterogeneous analyte, two species 1:1) was 950 nM.

**Q.** With “coch_vWFA2_F527C protein, monomeric form (recombinant vWFA2 domain of human cochlin carrying the p.F527C mutation) (domain or fragment)” as the substance, how does the stoichiometry N [2] read?
**A.** Its stoichiometry N is 2.

**Q.** With cochlin vWFA2 (from UniProt O43405) as the substance, how does the pKd [3] read?
**A.** The pKd was 7.02.
